We go through 7 molecules from PMC8265641, “Enterococcal PrgU Provides Additional Regulation of Pheromone-Inducible Conjugative Plasmids”.

The target in data set [1] is PrgU-His (PrgU with C-terminal His tag) (Enterococcus faecalis (plasmid pCF10)). The data set is described as follows: SEC-MALS; 200 ul PrgU-His at 1 mg/ml on Superdex 200 10/300 GL Increase, 20 mM potassium phosphate pH 7.0, 150 mM NaCl; self-association, dimer.
Data set [2] shares this target. The data set is described as follows: GEMMA (gas-phase electrophoretic mobility macromolecule analysis); main SEC peak of PrgU-His diluted to 0.01 mg/ml in 20 mM ammonium acetate, pH 7.8; self-association, dimer and monomer.
Another data set deals with PrgU-His (Enterococcus faecalis plasmid pCF10, UniProt Q5G3Q2 1-118). The data set is described as follows: MST; MST: 20 mM KPi pH 7.0, 150 mM NaCl, 0.05% Tween 20, 0.1 U/ul RNase inhibitor, ~25 C; EMSA: 20 min at ~25 C, 1% agarose run at 4 C, buffer as previously described (not given). To be noted: protein: recombinant, tags: C-terminal 10xHis with 3C protease site.

For “PrgU-His (PrgU with C-terminal His tag) (natural protein)”, the stoichiometry N in data set [1] and in data set [2] was 2 each time.

B1: IRS1 ssDNA (ssDNA)
DNA: GGAGCAGCGGGGAATGTATACAGTTCATGTATATGTTCCCCGCTTTTTTTG
Regarding B1, the binding result with PrgU-His is reported as “no binding”.

B2: IRS1 dsDNA (dsDNA)
DNA 1: B1 DNA
DNA 2: CAAAAAAAGCGGGGAACATATACATGAACTGTATACATTCCCCGCTGCTCC
With B2, the binding result in the data set with PrgU-His (blunt) was “no binding”.

B3: IRS1 RNA (structured_RNA)
RNA: GGAGCAGCGGGGAAUGUAUACAGUUCAUGUAUAUGUUCCCCGCUUUUUUUG
Consider B3, for which the binding result in the data set with PrgU-His (hairpin) was “no binding”. On the same count and under the same terms, in the case of ACUCGUAAGAGCCGUGCAAACAACGUGUUGCAUGGCUCUUUUUCUAC (structured_RNA) [IRS2 RNA] it was “no binding”. Take ACTCGTAAGAGCCGTGCAAACAACGTGTTGCATGGCTCTTTTTCTAC (ssDNA) [IRS2 ssDNA]: the binding result with PrgU-His is “no binding”.

B4: IRS2 dsDNA (dsDNA)
DNA 1: ACTCGTAAGAGCCGTGCAAACAACGTGTTGCATGGCTCTTTTTCTAC
DNA 2: GTAGAAAAAGAGCCATGCAACACGTTGTTTGCACGGCTCTTACGAGT
With B4, the binding result with PrgU-His (blunt) is recorded as “no binding”.
